Measured values published in the supplement of paper PMC9112550, “Optimization of the antimicrobial peptide Bac7 by deep mutational scanning” (BMC Biology, 2022).

System: Escherichia coli TOP10
Assay: shrunken log2 fold change of peptide-encoding DNA abundance (4.5 h post-induction vs induction); higher = less antimicrobial activity (less host growth inhibition)
Details: time post-induction: 4.5 h; library: site-saturation at positions 5, 18, 19, 20
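Also: peptides expressed intracellularly from a pBAD plasmid library in pooled LB shake-flask culture, induced with 0.3% L-arabinose, DNA abundance read by NGS, three biological replicates, DESeq2 with apeglm shrinkage.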

| Sequence | shrunken log2 fold change |
| --- | --- |
| RRIRIRPPRLPRPRPRPCSDPRP | -0.0062 |
| RRIRQRPPRLPRPRPRPHQVPRP | -0.253 |
| RRIRCRPPRLPRPRPRPGQTPRP | 0.0466 |
| RRIRKRPPRLPRPRPRPGIIPRP | -0.000605 |
| RRIRPRPPRLPRPRPRPLYSPRP | -0.194 |
| RRIRPRPPRLPRPRPRPSGTPRP | 0.669 |
| RRIRCRPPRLPRPRPRPKRMPRP | 0.118 |
| RRIRDRPPRLPRPRPRPVPAPRP | 0.341 |
| RRIRERPPRLPRPRPRPQSYPRP | -0.0192 |
| RRIRARPPRLPRPRPRPMYYPRP | -0.433 |
| RRIRHRPPRLPRPRPRPNKGPRP | -0.174 |
| RRIRFRPPRLPRPRPRPTARPRP | 0.336 |
| RRIRKRPPRLPRPRPRPPHTPRP | 0.534 |
| RRIRGRPPRLPRPRPRPLWFPRP | 0.183 |
| RRIRGRPPRLPRPRPRPDQWPRP | 0.665 |
| RRIRGRPPRLPRPRPRPYVQPRP | -0.122 |
| RRIRFRPPRLPRPRPRPMNCPRP | -0.735 |
| RRIRMRPPRLPRPRPRPHHIPRP | -0.165 |
| RRIRNRPPRLPRPRPRPIGYPRP | 0.103 |
| RRIRIRPPRLPRPRPRPYEPPRP | -0.21 |
| RRIRNRPPRLPRPRPRPSHEPRP | 0.00187 |
| RRIRPRPPRLPRPRPRPTPLPRP | 0.453 |
| RRIRGRPPRLPRPRPRPMWLPRP | 0.25 |
| RRIRWRPPRLPRPRPRPMCIPRP | -0.102 |
| RRIRGRPPRLPRPRPRPPNMPRP | 0.0204 |

| Sequence | shrunken log2 fold change |
| --- | --- |
| RRIRERPPRLPRPRPRPYGWPRP | -0.135 |
| RRIRWRPPRLPRPRPRPWPGPRP | 0.217 |
| RRIRHRPPRLPRPRPRPVLNPRP | 0.157 |
| RRIRRRPPRLPRPRPRPFHCPRP | 0.089 |
| RRIRMRPPRLPRPRPRPSDHPRP | 0.386 |
| RRIRPRPPRLPRPRPRPHPFPRP | -0.115 |
| RRIRGRPPRLPRPRPRPLGCPRP | 1.27 |
| RRIRCRPPRLPRPRPRPECQPRP | 0.511 |
| RRIRTRPPRLPRPRPRPWVGPRP | -0.155 |
| RRIRSRPPRLPRPRPRPHPNPRP | -0.239 |
| RRIRERPPRLPRPRPRPLVQPRP | 0.0736 |
| RRIRDRPPRLPRPRPRPVCDPRP | 0.696 |
| RRIRRRPPRLPRPRPRPYWHPRP | -0.484 |
| RRIRRRPPRLPRPRPRPHPMPRP | 0.144 |
| RRIRVRPPRLPRPRPRPKVRPRP | 0.0291 |
| RRIRTRPPRLPRPRPRPFKFPRP | -0.0637 |
| RRIRWRPPRLPRPRPRPHTLPRP | -0.325 |
| RRIRTRPPRLPRPRPRPWRNPRP | -0.253 |
| RRIRWRPPRLPRPRPRPLHCPRP | -0.444 |
| RRIRLRPPRLPRPRPRPVPWPRP | 0.0255 |
| RRIRMRPPRLPRPRPRPARSPRP | 1.05 |
| RRIRIRPPRLPRPRPRPRRYPRP | 0.111 |
| RRIRARPPRLPRPRPRPVPWPRP | 0.452 |
| RRIRERPPRLPRPRPRPFWYPRP | -0.000951 |
| RRIRLRPPRLPRPRPRPHIPPRP | -0.664 |

| Sequence | shrunken log2 fold change |
| --- | --- |
| RRIRMRPPRLPRPRPRPGQQPRP | 1.34 |
| RRIRMRPPRLPRPRPRPVLLPRP | 0.291 |
| RRIRHRPPRLPRPRPRPSYTPRP | -0.714 |
| RRIRMRPPRLPRPRPRPGHHPRP | 0.209 |
| RRIRGRPPRLPRPRPRPKNRPRP | 0.368 |
| RRIRYRPPRLPRPRPRPHISPRP | -0.317 |
| RRIRHRPPRLPRPRPRPGAHPRP | -0.457 |
| RRIRKRPPRLPRPRPRPQNAPRP | -0.0942 |
| RRIRDRPPRLPRPRPRPLCKPRP | -0.224 |
| RRIRMRPPRLPRPRPRPHNAPRP | 0.207 |
| RRIRRRPPRLPRPRPRPNMVPRP | -0.0449 |
| RRIRMRPPRLPRPRPRPCFCPRP | 0.0295 |
| RRIRVRPPRLPRPRPRPEVRPRP | 0.0429 |
| RRIRSRPPRLPRPRPRPHQIPRP | 0.0975 |
| RRIRFRPPRLPRPRPRPQDWPRP | -0.12 |
| RRIRERPPRLPRPRPRPLDGPRP | -0.0344 |
| RRIRERPPRLPRPRPRPLNDPRP | -0.272 |
| RRIRFRPPRLPRPRPRPLYKPRP | -0.813 |
| RRIRRRPPRLPRPRPRPQRCPRP | 0.177 |
| RRIRLRPPRLPRPRPRPEGQPRP | -0.118 |
| RRIRHRPPRLPRPRPRPKNAPRP | -0.223 |
| RRIRMRPPRLPRPRPRPNEQPRP | 0.37 |
| RRIRDRPPRLPRPRPRPRHRPRP | 0.375 |
| RRIRTRPPRLPRPRPRPHIGPRP | -0.156 |
| RRIRIRPPRLPRPRPRPMWIPRP | -0.208 |

| Sequence | shrunken log2 fold change |
| --- | --- |
| RRIRVRPPRLPRPRPRPDSLPRP | -0.416 |
| RRIRLRPPRLPRPRPRPVEHPRP | -0.174 |
| RRIRCRPPRLPRPRPRPMWMPRP | 0.174 |
| RRIRWRPPRLPRPRPRPCVSPRP | 0.144 |
| RRIRWRPPRLPRPRPRPNYYPRP | -0.705 |
| RRIRKRPPRLPRPRPRPEIWPRP | 2.45 |
| RRIRWRPPRLPRPRPRPGARPRP | 0.659 |
| RRIRCRPPRLPRPRPRPPPVPRP | 1.24 |
| RRIRTRPPRLPRPRPRPFHYPRP | -0.0376 |
| RRIRGRPPRLPRPRPRPVDSPRP | 0.0597 |
| RRIRWRPPRLPRPRPRPTMFPRP | 0.0589 |
| RRIRARPPRLPRPRPRPTFAPRP | 0.347 |
| RRIRRRPPRLPRPRPRPCFCPRP | 0.104 |
| RRIRKRPPRLPRPRPRPMTGPRP | 0.0188 |
| RRIRNRPPRLPRPRPRPAWSPRP | 0.0515 |
| RRIRSRPPRLPRPRPRPMWLPRP | 0.0415 |
| RRIRRRPPRLPRPRPRPVGCPRP | 0.472 |
| RRIRGRPPRLPRPRPRPCAKPRP | 0.661 |
| RRIRIRPPRLPRPRPRPLYPPRP | -0.561 |
| RRIRLRPPRLPRPRPRPLDCPRP | 0.0132 |
| RRIRLRPPRLPRPRPRPKLNPRP | -0.182 |
| RRIRYRPPRLPRPRPRPRHVPRP | -0.0478 |
| RRIRGRPPRLPRPRPRPMYHPRP | -0.242 |
| RRIRNRPPRLPRPRPRPQTKPRP | 0.173 |
| RRIRLRPPRLPRPRPRPHVNPRP | -0.105 |

| Sequence | shrunken log2 fold change |
| --- | --- |
| RRIRRRPPRLPRPRPRPEPTPRP | 0.543 |
| RRIRARPPRLPRPRPRPPVTPRP | 0.354 |
| RRIRPRPPRLPRPRPRPRQGPRP | 0.236 |
| RRIRKRPPRLPRPRPRPSMTPRP | -0.0765 |
| RRIRARPPRLPRPRPRPDTKPRP | 0.0293 |
| RRIRSRPPRLPRPRPRPVSKPRP | 0.236 |
| RRIRDRPPRLPRPRPRPPSDPRP | 0.251 |
| RRIRARPPRLPRPRPRPTVTPRP | 0.707 |
| RRIRHRPPRLPRPRPRPGFVPRP | 0.607 |
| RRIRKRPPRLPRPRPRPFFGPRP | 0.304 |
| RRIRNRPPRLPRPRPRPIRFPRP | -0.0225 |
| RRIRERPPRLPRPRPRPGMCPRP | 0.248 |
| RRIRHRPPRLPRPRPRPNNIPRP | -1.2 |
| RRIRHRPPRLPRPRPRPCDAPRP | -0.0305 |
| RRIRLRPPRLPRPRPRPMLEPRP | 0.0968 |
| RRIRHRPPRLPRPRPRPRHGPRP | -0.0477 |
| RRIRFRPPRLPRPRPRPAKKPRP | 0.188 |
| RRIRGRPPRLPRPRPRPLCQPRP | 0.712 |
| RRIRHRPPRLPRPRPRPTNAPRP | -0.463 |
| RRIRSRPPRLPRPRPRPMMEPRP | 0.0765 |
| RRIRWRPPRLPRPRPRPHFEPRP | -0.165 |
| RRIRARPPRLPRPRPRPNWRPRP | 0.883 |
| RRIRWRPPRLPRPRPRPCISPRP | 0.169 |
| RRIRYRPPRLPRPRPRPNFRPRP | -0.425 |
| RRIRFRPPRLPRPRPRPPECPRP | -0.0973 |

| Sequence | shrunken log2 fold change |
| --- | --- |
| RRIRDRPPRLPRPRPRPEHWPRP | 0.598 |
| RRIRPRPPRLPRPRPRPEEQPRP | 0.00406 |
| RRIRQRPPRLPRPRPRPLLFPRP | -0.0219 |
| RRIRQRPPRLPRPRPRPPFVPRP | 0.0462 |
| RRIRMRPPRLPRPRPRPQSNPRP | 0.0557 |
| RRIRCRPPRLPRPRPRPHFDPRP | 0.0458 |
| RRIRPRPPRLPRPRPRPGWAPRP | 0.623 |
| RRIRLRPPRLPRPRPRPCGFPRP | -0.0181 |
| RRIRTRPPRLPRPRPRPTMTPRP | -0.0413 |
| RRIRRRPPRLPRPRPRPQWLPRP | 0.431 |
| RRIRWRPPRLPRPRPRPGQHPRP | -0.172 |
| RRIRFRPPRLPRPRPRPRFQPRP | 0.0731 |
| RRIRKRPPRLPRPRPRPMRCPRP | 1.16 |
| RRIRFRPPRLPRPRPRPWAKPRP | -0.0227 |
| RRIRCRPPRLPRPRPRPGWMPRP | 0.0485 |
| RRIRHRPPRLPRPRPRPFCGPRP | 0.336 |
| RRIRVRPPRLPRPRPRPRESPRP | 0.259 |
| RRIRPRPPRLPRPRPRPYLYPRP | -0.672 |
| RRIRNRPPRLPRPRPRPGQWPRP | 0.244 |
| RRIRFRPPRLPRPRPRPQWFPRP | -0.344 |
| RRIRCRPPRLPRPRPRPMYYPRP | -0.472 |
| RRIRHRPPRLPRPRPRPMASPRP | -0.0864 |
| RRIRERPPRLPRPRPRPGGAPRP | 0.276 |
| RRIRYRPPRLPRPRPRPQEEPRP | -0.0969 |
| RRIRARPPRLPRPRPRPWFYPRP | 0.0676 |
